Data from patent US20250092108A1 (published 2025).
Positions count from the first letter of the chain named. Names and notes keep the numbering of the source. Read-outs that look alike come from different tables or passages of the source.

T1: human CD25 (IL-2Rα) (human, UniProt P01589 22-213)
T1 chain: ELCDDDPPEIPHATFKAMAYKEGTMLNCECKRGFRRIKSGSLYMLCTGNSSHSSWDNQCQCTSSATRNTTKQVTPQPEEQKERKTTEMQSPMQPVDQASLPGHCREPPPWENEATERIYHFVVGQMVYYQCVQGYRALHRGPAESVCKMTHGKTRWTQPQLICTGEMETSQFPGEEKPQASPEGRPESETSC

B1: 14192 R38E T41K C125S (protein)
chain: APTSSSTKKTQLQLEHLLLDLQMILNGINNYKNPKLTEMLKFKFYMPKKATELKHLQCLEEELKPLEEVLNLAQSKNFHLRPRDLISNINVIVLELKGSETTFMCEYADETATIVEFLNRWITFSQSIISTLT
B2: 14217 R38P T41R C125S (protein)
chain: B1 chain with E38P, K41R
B3: 14215 R38N T41K C125S (protein)
chain: B1 chain with E38N
B4: 14206 T41E F42Y C125S (protein)
chain: B1 chain with E38R, K41E, F42Y
B5: 14190 R38Q T41K C125S (protein)
chain: B1 chain with E38Q
B6: 14214 R38N T41R C125S (protein)
chain: B1 chain with E38N, K41R
B7: XENP14206 (T41E F42Y C125S) (protein)
chain: B1 chain with E38R, K41E, F42Y
B8: XENP14217 (R38P T41R C125S) (protein)
chain: B1 chain with E38P, K41R
B9: 14191 R38Q T41Q C125S (protein)
chain: B1 chain with E38Q, K41Q
B10: 14208 T41M F42Y C125S (protein)
chain: B1 chain with E38R, K41M, F42Y
B11: XENP14213 (R38Q F42Y C125S) (protein)
chain: B1 chain with E38Q, K41T, F42Y
B12: XENP14216 (R38V T41R C125S) (protein)
chain: B1 chain with E38V, K41R
B13: 14209 T41Q F42Y C125S (protein)
chain: B1 chain with E38R, K41Q, F42Y
B14: 14213 R38Q F42Y C125S (protein)
chain: B1 chain with E38Q, K41T, F42Y
B15: XENP14207 (T41D F42Y C125S) (protein)
chain: B1 chain with E38R, K41D, F42Y
B16: XENP14209 (T41Q F42Y C125S) (protein)
chain: B1 chain with E38R, K41Q, F42Y
B17: 14207 T41D F42Y C125S (protein)
chain: B1 chain with E38R, K41D, F42Y
B18: 14202 R38Q T41S C125S (protein)
chain: B1 chain with E38Q, K41S
B19: 14193 R38Q T41R C125S (protein)
chain: B1 chain with E38Q, K41R
B20: 14216 R38V T41R C125S (protein)
chain: B1 chain with E38V, K41R
B21: XENP14208 (T41M F42Y C125S) (protein)
chain: B1 chain with E38R, K41M, F42Y
B22: 14194 R38N T41Q C125S (protein)
chain: B1 chain with E38N, K41Q
B23: XENP14214 (R38N T41R C125S) (protein)
chain: B1 chain with E38N, K41R
B24: CD25 (receptor)
chain: T1 chain
B25: 24638 (Fc fusion)
chain: APTSSSTKKTQLQLEHLLLDLQMILNGISNHKNPRLARMLTFKFYMPEKATELKHLQCLEEELKPLEEALRLAPSKNFHLRPRDLISDVNVIVLELKGSETTFMCEYADETATIVEFLNRWITFSQSIISTLT
B26: XENP14277 (prior art IL-2 variant, mutant 2-4 with Q126T as described in WO 2009/061853, without R38L) (ligand)
chain: APTSSSTKKTQLQLEHLLLDLQMILNGISNHKNPRLARMLTFKFYMPEKATELKHLQCLEEELKPLEEALRLAPSKNFHLRPRDLISDVNVIVLELKGSETTFMCEYADETATIVEFLNRWITFSTSIISTLTHHHHHHHH
B27: XENP14381 (prior art IL-2 variant, mutant 2-4 with Q126T, with R38L) (ligand)
chain: B26 chain with R38L
B28: XENP26109 (Fc fusion)
chain 1: EPKSSDKTHTCPPCPAPPVAGPSVFLFPPKPKDTLMISRTPEVTCVVVDVKHEDPEVKFNWYVDGVEVHNAKTKPREEEYNSTYRVVSVLTVLHQDWLNGKEYKCKVSNKALPAPIEKTISKAKGQPREPQVYTLPPSREEMTKNQVSLTCDVSGFYPSDIAVEWESDGQPENNYKTTPPVLDSDGSFFLYSKLTVDKSRWEQGDVFSCSVMHEALHNHYTQKSLSLSPGK
chain 2: APASSSTKKTQLQLEHLLLNLQMILNGINNYKNPKLTRMLTFKFYMPKKATELKHLQCLEEELKPLEEVLKLAQSKNFHLRPRDLISNINVIVLELKGSETTFMCEYADETATIVEFLNRWITFSQSIISTLTEPKSSDKTHTCPPCPAPPVAGPSVFLFPPKPKDTLMISRTPEVTCVVVDVKHEDPEVKFNWYVDGVEVHNAKTKPREEQYNSTYRVVSVLTVLHQDWLNGKEYKCKVSNKALPAPIEKTISKAKGQPREPQVYTLPPSREQMTKNQVKLTCLVKGFYPSDIAVEWESNGQPENNYKTTPPVLDSDGSFFLYSKLTVDKSRWQQGNVFSCSVMHEALHNHYTQKSLSLSPGK
B29: XENP26105 (Fc fusion)
chain 1: B28 chain 1
chain 2: B28 chain 2 with T37R, K71N

Key:
human CD25 (IL-2Rα) [1] = molecular target: T1, human CD25 (IL-2Rα); assay: Biacore; pH 7.4
human CD25 (IL-2Rα) [2] = molecular target: T1, human CD25 (IL-2Rα); assay: Biacore; pH 6.0
human CD25 (IL-2Rα) [3] = molecular target: T1, human CD25 (IL-2Rα); assay: Biacore; pH 7.4
human CD25 (IL-2Rα) [4] = molecular target: T1, human CD25 (IL-2Rα); assay: Biacore; pH 6.0
24732 = assay: Octet
24729 = assay: Octet
24641 = assay: Octet
24640 = assay: Octet
24725 = assay: Octet
24636 = assay: Octet
24639 = assay: Octet
24643 = assay: Octet
24728 = assay: Octet
XENP26088 = assay: Octet
XENP26092 = assay: Octet
XENP26108 = assay: Octet
XENP26086 = assay: Octet
XENP26093 = assay: Octet
XENP26089 = assay: Octet
XENP26096 = assay: Octet
XENP26104 = assay: Octet
CD122:CD132 [5] = assay: Octet
CD25 = molecular target: B24; assay: Octet
human CD25 (IL-2Rα) [6] = molecular target: T1, human CD25 (IL-2Rα); assay: Biacore; pH 7.4
human CD25 (IL-2Rα) [7] = molecular target: T1, human CD25 (IL-2Rα); assay: Biacore; pH 6.0
CD122:CD132 [8] = assay: Octet; remark: listed apart in the source
human CD25 (IL-2Rα) [9] = molecular target: T1, human CD25 (IL-2Rα); assay: Octet

Binder: B1
Kd (human CD25 (IL-2Rα) [1]): 172 nM
Kd (human CD25 (IL-2Rα) [2]): 31.1 nM

Binder: B2
Kd (human CD25 (IL-2Rα) [3]): 326 nM

Binder: B3
Kd (human CD25 (IL-2Rα) [3]): 75.4 nM

Binder: B4
Kd (human CD25 (IL-2Rα) [3]): 280 nM

Binder: B5
Kd (human CD25 (IL-2Rα) [1]): 98.3 nM
Kd (human CD25 (IL-2Rα) [2]): 489 nM

Binder: B6
Kd (human CD25 (IL-2Rα) [3]): 149 nM

Binder: B7
Kd (human CD25 (IL-2Rα) [4]): 30300 nM

Binder: B8
Kd (human CD25 (IL-2Rα) [4]): 1710 nM

Binder: B9
Kd (human CD25 (IL-2Rα) [1]): 196 nM
Kd (human CD25 (IL-2Rα) [2]): 2470 nM

Binder: B10
Kd (human CD25 (IL-2Rα) [3]): 81 nM

Binder: B11
Kd (human CD25 (IL-2Rα) [4]): 2430 nM

Binder: B12
Kd (human CD25 (IL-2Rα) [4]): 128 nM

Binder: B13
Kd (human CD25 (IL-2Rα) [3]): 5950 nM

Binder: B14
Kd (human CD25 (IL-2Rα) [3]): 1110 nM

Binder: B15
Kd (human CD25 (IL-2Rα) [4]): 319 nM

Binder: B16
Kd (human CD25 (IL-2Rα) [4]): 2630 nM

Binder: B17
Kd (human CD25 (IL-2Rα) [3]): 139 nM

Binder: B18
Kd (human CD25 (IL-2Rα) [1]): 1240 nM
Kd (human CD25 (IL-2Rα) [2]): 1710 nM

Binder: B19
Kd (human CD25 (IL-2Rα) [1]): 458 nM
Kd (human CD25 (IL-2Rα) [2]): 533 nM

Binder: B20
Kd (human CD25 (IL-2Rα) [3]): 214 nM

Binder: B21
Kd (human CD25 (IL-2Rα) [4]): 83 nM

Binder: B22
Kd (human CD25 (IL-2Rα) [2]): 84.6 nM

Binder: B23
Kd (human CD25 (IL-2Rα) [4]): 57200 nM

Binder: B24
Kd 24732: 91.2 nM
Kd 24729: 25.5 nM
Kd 24641: 12.7 nM
Kd 24640: 1.14 nM
Kd 24725: 19.6 nM
Kd 24636: 14.5 nM
Kd 24639: 8.04 nM
Kd 24643: 26.6 nM
Kd 24728: 41.8 nM
Kd (XENP26088): 16.6 nM
Kd (XENP26092): 26.4 nM
Kd (XENP26108): 27.7 nM
Kd (XENP26086): 16.9 nM
Kd (XENP26093): 21.3 nM
Kd (XENP26089): 14.4 nM
Kd (XENP26096): 39.2 nM
Kd (XENP26104): 14.7 nM

Binder: B25
Kd (CD122:CD132 [5]): 146 nM
Kd (CD25): 1.33 nM

Binder: B26
Kd (human CD25 (IL-2Rα) [6]): 2 nM
Kd (human CD25 (IL-2Rα) [7]): 190 nM

Binder: B27
Kd (human CD25 (IL-2Rα) [6]): 9.4 nM
Kd (human CD25 (IL-2Rα) [7]): 16.8 nM

Binder: B28
Kd (CD122:CD132 [8]): 57.3 nM
Kd (human CD25 (IL-2Rα) [9]): 28.5 nM

Binder: B29
Kd (CD122:CD132 [8]): 36.4 nM
Kd (human CD25 (IL-2Rα) [9]): 14.1 nM
